From paper PMC4199913 (The FEBS journal, 2014) come the findings set out here.

The target in one series is MaTrx2 (Methanosarcina acetivorans, UniProt Q8TL30). In words: turbidimetric insulin reduction, […] nm. The format is biochemical. The conditions noted are these: 0.33 mM DTT, 0.13 mM insulin, 100 mM KPO4 pH 6.8, anaerobic.
A further series has as its target MaTrx7 (Methanosarcina acetivorans, UniProt Q8TR15). Nature of the series: turbidimetric insulin reduction, […] nm. The conditions noted are these: 0.33 mM DTT, 0.13 mM insulin, 100 mM KPO4 pH 6.8, anaerobic. Format: biochemical.
Another series concerns the target MaTrx6Δsp (Methanosarcina acetivorans, UniProt Q8TIA1). Nature of the series: turbidimetric insulin reduction, […] nm. Format: biochemical. The conditions noted are these: 0.33 mM DTT, 0.13 mM insulin, 100 mM KPO4 pH 6.8, anaerobic.
Substrate in series [1]: NC(=O)C1=CN([C@@H]2O[C@H](COP(=O)(O)OP(=O)(O)OC[C@H]3O[C@@H](n4cnc5c(N)ncnc54)[C@H](OP(=O)(O)O)[C@@H]3O)[C@@H](O)[C@H]2O)C=CC1
In words: purified protein. The format is biochemical, Methanosarcina acetivorans. The conditions noted are these: 1 mM DTNB, 0.5 µM MaTrxR, 50 mM Tris-HCl 150 mM NaCl pH 7.2, anaerobic.

Substrate in series [2]: NC(=O)C1=CN([C@@H]2O[C@H](COP(=O)(O)OP(=O)(O)OC[C@H]3O[C@@H](n4cnc5c(N)ncnc54)[C@H](O)[C@@H]3O)[C@@H](O)[C@H]2O)C=CC1
In words: purified protein. The format is biochemical, Methanosarcina acetivorans. To be noted: 1 mM DTNB, 0.5 µM MaTrxR, 50 mM Tris-HCl 150 mM NaCl pH 7.2, anaerobic.

Turning to `OC(CS)C(O)CS` (stereo not drawn) [DTT], the “turbidimetric insulin reduction, 650 nm” value at MaTrx2 is “All three purified MaTrxs exhibited both DTT- and lipoamide-dependent insulin reduction activity”; at MaTrx7, “All three purified MaTrxs exhibited both DTT- and lipoamide-dependent insulin reduction activity”; at MaTrx6Δsp, “All three purified MaTrxs exhibited both DTT- and lipoamide-dependent insulin reduction activity”.

B1: MaTrxR (Methanosarcina acetivorans C2A) (protein)
chain: MNSFLFSGGNMYDLIIIGGGPAGLAAGIYAVRFGLDTLVLEKSEISGQISMSDIVENYPGFPSISGLELMEKYRTHAQEVGVKTKITEVLSVRTEGAKKIVSTDSGDLEAKTLIIATGANPKHLGVPGEKEFISKGVSYCAICDGPFFKNKTVVVVGGGNSAVTDALLLSKVAQNVYLIHRRDRLKAAKVLQDRALATPNIEFILNTLVQEIAGSREGVKKVEKVILQDLNSKESRELSTNGVFIYVGIQPNTEFVNVEKNNEGFIITNRWMETSEKGIYAAGDCRDTPIWQLVAAVRDGAIAATAANEYIESLK
On to B1, for which, in “purified protein [1]”, the Km was 6.3 ± 0.5 µM, the kcat amounted to 0.65 s⁻¹ and the kcat/Km turned out to be 103000 M⁻¹ s⁻¹. Also, in the series “purified protein [2]”, the Km was 736 ± 57 µM, the kcat is 0.817 s⁻¹ and the kcat/Km is 1120 M⁻¹ s⁻¹.

A word on the Km: it is the concentration of substrate that gives half-maximal velocity. As a reminder, the kcat is the maximal rate divided by the concentration of active sites. What is called kcat/Km is the second-order rate constant that governs catalysis at low substrate concentration.
